Source: patent publication US20080207488A1, “Method for Detecting Peptides Comprising a Cross-B Structure” (priority 2005, published 2008)

How the values were obtained:
Congo red fluorescence = type: physicochemical; conditions: marketed biopharmaceutical within expiry limits, five μL tested
Description: Background signals from buffer, buffer with Congo red and protein/peptide solution without Congo red were subtracted from corresponding measurements with protein solution incubated with Congo red. Fluorescence was measured in triplicate on a Hitachi F-4500 fluorescence spectrophotometer (Ltd., Tokyo, Japan).
Formulated protein therapeutics were obtained from the local hospital pharmacy and were used as supplied by the manufacturers. […] Lyophilized therapeutics were dissolved according to the manufacturers recommendations. […] Other protein therapeutics were only kept at 4° C., and assayed for the presence of cross-β structure conformation at shown time points. Enhancement in fluorescence of ThT and Congo red was measured with all formulated protein therapeutics. For this purpose, proteins were diluted to the indicated concentrations. […] Zinc-insulin was diluted tenfold in the activation assay, GH was diluted to a final concentration of 500 μg ml^−1. Activation of factor XII and prekallikrein by the therapeutics was tested in the chromogenic factor XII assay (see above). […] After coating, plates were blocked with Blocking Reagent (Roche Diagnostics, Almere, The Netherlands).
(§1) Protein therapeutics were obtained from the local hospital pharmacy and analyzed within the expiry limits as stated by the manufacturers.

tPA [1] = target: T1, tPA (Homo sapiens, UniProt P00750); experiment: tPA binding assay with immobilized biopharmaceuticals in an ELISA; conditions: therapeutic coated 1:10; one-site binding fit
T1 construct: purchased Boehringer-Ingelheim (Actilyse, Alteplase)
Description: Nunc Immobilizer plates (Nalge Nunc, #436013, Rochester, N.Y., USA) were coated with 50 μL containing 5 μg/mL of sample protein (unless indicated otherwise) in 100 mM NaHCO3, pH 9.6, 0.05% m/v NaN3 for 1 hour at room temperature. Plates were washed twice with Tris buffered saline pH 7.2 containing 0.1% Tween20 (TBST) and blocked with PBS containing 1% Tween20 for 1 hour at room temperature. […] Plates were washed five times with TBST and incubated with peroxidase labeled anti-mouse immunoglobulins (RAMPO; DAKOCytomation, Glostrup, Denmark) diluted 1:3000 in PBST for 30 minutes at room temperature. Plates were washed five times with PBS 0.1% Tween20, and stained with 100 μL/well of tetramethyl-benzidine (TMB) substrate (Biosource Europe, Nivelles, Belgium). The reaction was terminated with 50 μL/well of 2 M H2SO4 and substrate conversion was read at 450 nm on a Spectramax340 microplate reader. Curves were fitted with a one-site binding model (GraphPad Prism version 4.02 for Windows, Graphpad Software, CA, USA) from which Kd and Bmax were determined.
as §1

tPA [2] = target: T1, tPA; experiment: Biacore surface plasmon resonance, binding to immobilized tPA; conditions: Hb-AGE 32, amyloid γ-globulins 62.5, albumin-AGE 3.9 μg ml^−1
Description: Binding of cross-β structure conformation containing peptides/proteins was studied using surface plasmon resonance technology with a Biacore 2000 apparatus (Biacore AB, Uppsala, Sweden). A standardized amine coupling procedure was used to couple proteins with F domains to a CM5 chip (Biacore AB, Uppsala, Sweden). First, the dextran surface of the chips was activated by a 35 μl injection with a 1:1 mixture of 0.1 M N-hydroxysuccinimide (NHS) and 0.4 M N-ethyl-N′-(dimethylaminopropyl)carbodiimide (EDC) at a flow rate of 5 μl min.^−1. Then, the proteins were covalently coupled to the activated dextran surface. Remaining activated groups in each of the four flow channels were blocked by injection of 35 μl of 1 M ethanolamine hydrochloride pH 8.5. EDC, NHS and ethanolamine hydrochloride were obtained from Biacore. On one chip, on channels 1 to 4, buffer (reference channel), the soluble extracellular part of receptor for advanced glycation endproducts (sRAGE), tPA and K2P-tPA were immobilized. […] Binding of albumin-AGE was determined with a solution of 3.9 μg ml^−1 albumin-AGE in running buffer. albumin-AGE was filtered on a Millex-GV 0.22 μm filter unit (Millipore). […] Binding of Hb-AGE was also tested after centrifugation for 10 min. at 16,000*g alternative to filtration. tPA activation before and after filtration was assessed with a Plg-activation assay. […]

human BiP = target: T2, human BiP (Homo sapiens, UniProt P11021); experiment: ELISA, binding of BiP to coated (mis)folded proteins; conditions: coated protein
T2 construct: made in house; host or cells: HEK293E cells, transient transfection, protein purified from the medium
Description: The plates were blocked using Blocking reagent (Roche 1112589). A dilution series of the protein of interest was applied to the coated proteins and wells were subsequently washed using TBS-T (50 mM Tris pH 7.3, 150 mM NaCl and 0.1% Tween20). Bound protein is detected by the FLAG-tag using 1:3000 anti-FLAG-HRP (Sigma A-8592) in PBS-T, or by 1:1000 Ni-NTA-HRP (Qiagen 34530) in PBS-T. The HRP reaction Is performed using the TMB substrate (Biosource 4501103 or Tebu Bio 101TMB100-500), stopped using 10% H2SO4 and absorbance was measured at 450 nm.

T1 sequence (P00750 36-562): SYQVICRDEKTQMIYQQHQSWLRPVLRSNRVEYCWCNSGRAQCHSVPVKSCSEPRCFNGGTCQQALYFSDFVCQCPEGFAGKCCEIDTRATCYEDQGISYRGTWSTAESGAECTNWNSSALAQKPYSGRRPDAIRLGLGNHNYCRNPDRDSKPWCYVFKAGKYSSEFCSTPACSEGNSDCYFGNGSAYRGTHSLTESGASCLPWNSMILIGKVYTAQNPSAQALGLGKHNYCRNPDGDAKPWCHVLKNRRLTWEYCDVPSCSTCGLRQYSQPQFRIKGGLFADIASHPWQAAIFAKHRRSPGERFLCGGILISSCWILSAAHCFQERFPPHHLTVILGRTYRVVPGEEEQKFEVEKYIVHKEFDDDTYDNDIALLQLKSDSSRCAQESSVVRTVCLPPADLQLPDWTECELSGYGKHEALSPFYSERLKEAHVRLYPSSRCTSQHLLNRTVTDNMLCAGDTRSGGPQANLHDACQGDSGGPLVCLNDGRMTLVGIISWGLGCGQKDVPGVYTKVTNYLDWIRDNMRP
T2 sequence (P11021 19-654): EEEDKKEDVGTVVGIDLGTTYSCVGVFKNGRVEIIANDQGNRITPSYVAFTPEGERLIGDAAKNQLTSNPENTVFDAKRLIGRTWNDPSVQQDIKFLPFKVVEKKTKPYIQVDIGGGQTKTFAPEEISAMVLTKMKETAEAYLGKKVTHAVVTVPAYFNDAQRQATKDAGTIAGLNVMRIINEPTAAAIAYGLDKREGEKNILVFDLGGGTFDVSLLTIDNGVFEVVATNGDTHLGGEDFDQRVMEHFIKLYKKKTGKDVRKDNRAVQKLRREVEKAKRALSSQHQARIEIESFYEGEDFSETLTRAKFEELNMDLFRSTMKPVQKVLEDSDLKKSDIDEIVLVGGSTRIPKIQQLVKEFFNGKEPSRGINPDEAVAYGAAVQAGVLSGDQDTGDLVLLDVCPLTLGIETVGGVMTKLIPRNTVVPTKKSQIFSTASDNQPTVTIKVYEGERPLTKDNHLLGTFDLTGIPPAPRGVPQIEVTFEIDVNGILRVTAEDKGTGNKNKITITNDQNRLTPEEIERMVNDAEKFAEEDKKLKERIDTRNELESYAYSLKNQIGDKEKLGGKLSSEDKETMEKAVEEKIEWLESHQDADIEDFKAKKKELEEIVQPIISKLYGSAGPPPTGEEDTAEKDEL

tPA Binding Bmax (OD450 nm) (tPA [1]) | binding to immobilized tPA (tPA [2]) | binding of BiP (detection anti-FLAG-HRP) (human BiP) | binding of BiP (detection Ni-NTA-HRP) (human BiP; FIG. 7A) | Substance | Fluorescence (a.u. +/− SD) CR (Congo red fluorescence)
0.5329 |  |  |  | Abciximab: abciximab, an inhibitor of blood platelet aggregation (ReoPro, Centocor) | 25 +/− 1 a.u.
 | bind | high affinity | low affinity | albumin-AGE: advanced glycation end-product modified bovine serum albumin | 
